Data as given in US20120052007A1, “PERIPHERAL BLOOD SPARC BINDING ANTIBODIES AND USES THEREOF” (ABRAXIS BIOSCIENCE, LLC, priority 2010, published 2012).
“Also recorded” adds a separate entry of the source.

Columns and labels:
[1] = test system: HT29 (colon); details: for Tumor growth inhibition (TGI): HT29 xenograft, versus control group at euthanasia of control animals
Text: Female and male athymic NCr-nu mice between 5 and 6 weeks of age weighing approximately 20 g were purchased from Harlan, Inc. (Madison, Wis., USA). Human cancer cells HT29 (colon), PC3 (prostate), and MDA-MB-231 (breast) were propagated in cell culture and implanted subcutaneously at one million cells per flank of female (for MDA-MB-231 and HT29) or male (for PC3 prostate tumor) nude mice and allowed to grow to approximately 60-100 mm^3 before treatment was initiated. Treatments included 5-fluorouracil (5FU), docetaxel (Taxotere®), albumin-bound paclitaxel (nab-paclitaxel), nab-paclitaxel plus suntinib malate (Sutent®), or nab-paclitaxel plus bevacizumab (Avastin®) with or without exogenously administered SPARC). Control animals for each xenograft were administered PBS. The longest (length) and shortest (width) tumor diameters (millimeter) and tumor depth were measured twice weekly. The tumor volume was calculated with the formula: tumor volume (mm3)=width×length×depth. Tumor growth inhibition (TGI) was defined as the percentage of tumor volume reduction compared with the control group at the time of euthanasia for the control animals. Tumor doubling time was defined as the time required for the tumor volume to double […]. Animal weights were measured twice weekly. Statistical analysis was performed using the Prism program (GraphPad, San Diego, Calif., USA). Analysis of variance (ANOVA) statistic was used to compare tumor growth curves.

[2] = molecular target: T1, SPARC (Homo sapiens, UniProt P09486); test: ELISA comparing Imm11, Imm12, Imm13, Imm14 binding to human SPARC; details: ELISA (FIG. 13)
T1 sequence (P09486 18-303): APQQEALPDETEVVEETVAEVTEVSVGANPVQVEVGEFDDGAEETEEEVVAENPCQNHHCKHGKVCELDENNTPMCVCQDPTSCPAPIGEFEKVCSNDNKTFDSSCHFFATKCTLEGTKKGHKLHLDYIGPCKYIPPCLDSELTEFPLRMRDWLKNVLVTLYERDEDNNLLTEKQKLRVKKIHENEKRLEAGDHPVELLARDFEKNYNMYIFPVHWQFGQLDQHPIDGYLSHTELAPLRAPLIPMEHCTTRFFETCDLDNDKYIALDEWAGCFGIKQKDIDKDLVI
Experimental: An ELISA assay was also performed to directly compare the SPARC binding capabilities of selected mouse-derived anti human SPARC antibodies, Imm11 and Imm12, to the fully human Imm13 and Imm14, the results of which are presented in FIG. 13.

[3] = test system: HT29 colon xenografts; test: Tumor localization of Alexa 680 labeled antibodies in HT29 xenografts; assay type: in vivo, mice; details: 200 ug/mouse i.v. day 1, Alexa 680 label, followed 36 days
Experimental: Nude mice implanted with subcutaneous HT29 colon xenografts were treated with Imm series antibodies labeled with labeled with Alexa 680 fluorescent dye at dose of 200 ug/mouse. The labeled Imm antibodies were formulated in saline and administered intravenously on day 1. The fluorescent signal was followed in these mice over the course of 36 days.

[4] = molecular target: T2, recombinant human SPARC (Bio1-SPARC) (Homo sapiens, UniProt P09486); test: ELISA binding to recombinant human SPARC (Bio1-SPARC); details: for binding to Bio1-SPARC compared with HTI-SPARC (ELISA): Bio1-SPARC versus human platelet SPARC (FIG. 9)
T2 sequence (P09486 18-303): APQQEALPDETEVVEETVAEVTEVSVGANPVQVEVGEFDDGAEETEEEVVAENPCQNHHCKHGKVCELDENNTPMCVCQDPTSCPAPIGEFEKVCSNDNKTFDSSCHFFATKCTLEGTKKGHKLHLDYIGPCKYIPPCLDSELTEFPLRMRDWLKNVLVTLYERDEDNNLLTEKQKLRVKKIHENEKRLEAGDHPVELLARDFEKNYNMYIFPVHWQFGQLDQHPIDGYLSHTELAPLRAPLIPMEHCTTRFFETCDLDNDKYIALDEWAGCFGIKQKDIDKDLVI
Experimental: The ability of Imm1 through Imm12 (the mouse-derived anti-human SPARC antibodies) to bind recombinant human SPARC (Bio 1-SPARC) was characterized by multiple ELISA assays performed at various stages of purification. FIG. 7 presents the results of an ELISA assay performed on a serial dilution (1:1, 1:10, and 1:100) of antibody supernatants prior to purification. […] Another ELISA assay was performed with the purified antibodies (FIG. 8) at concentrations of 0.04 μg/mL, 0.2 μg/mL, 1 μg/mL, and 5 μg/mL. […] An additional ELISA was performed to compare the binding of the mouse derived Immseries antibodies to two different varieties of SPARC: Bio1-SPARC, and human platelet SPARC (HTI-SPARC) (FIG. 9).
ELISA assays were also used to characterize the SPARC binding of the fully human SPARC binding antibodies, Imm13 and Imm14. […] Surface plasmon resonance binding assays, performed on the Biacore 3000® (GE/Biacore International AB, Uppsala, Sweden), tested the binding of Fab 16 to both varieties of SPARC immobilized on a sensorchip (FIGS. 11 and 12).

[5] = molecular target: T3, denatured human SPARC (Homo sapiens, UniProt P09486); test: Western blot against denatured SPARC; assay type: binding; details: SDS polyacrylamide gel
T3 sequence (P09486 18-303): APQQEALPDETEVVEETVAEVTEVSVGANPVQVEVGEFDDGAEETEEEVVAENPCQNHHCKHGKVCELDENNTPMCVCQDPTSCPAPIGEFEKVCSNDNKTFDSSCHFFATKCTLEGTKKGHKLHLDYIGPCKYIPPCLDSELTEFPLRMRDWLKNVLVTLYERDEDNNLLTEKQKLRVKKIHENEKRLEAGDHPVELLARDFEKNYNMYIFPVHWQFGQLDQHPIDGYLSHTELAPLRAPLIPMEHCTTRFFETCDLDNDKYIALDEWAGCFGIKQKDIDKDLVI
Text: Western blotting was used to determine whether the Imm series antibodies bind to linear or conformational epitopes. In this analysis, SPARC protein was run on a polyacrylamide gel in the presence of SDS. Accordingly, the SPARC protein on the gel was in its denatured form. The Imm series antibodies were used as primary antibodies and were then probed with goat anti-mouse IgG. BSA was used as a negative control.

[6] = test system: LL/2 (Lewis Lung Carcinoma); test: LL/2 Lewis Lung Carcinoma survival / lung metastasis model; assay type: in vivo, mice; details: 200 μg/mouse i.p. twice weekly for 4 weeks, versus mouse control IgG
Experimental: C57BL male mice (approx. 6 weeks old) were weighed, and then injected intravenously with approximately 1×10^6 cells (approximately 0.1 mL) of LL/2 (Lewis Lung Carcinoma) with 25-gauge needle. A minimum of 10 animals was used per group. Twice weekly for 4 weeks, each animal in all groups received 200 μg/mouse of a test antibody or mouse IgG. These test articles/antibodies were dosed via intra-abdominal injection into the peritoneal cavity with a 25-27 gauge needle. The first dose was administered within 30 minutes of tumor cell injection.
Animals were weighed prior to tumor cell injection, and twice weekly prior to dosing. All animals were examined twice daily for mortality/morbidity. At the end of the experiment, the mice were killed, and primary tumors and lungs were removed, fixed, and embedded. Euthanized animals and any animals found dead prior to rigor mortis were necropsied. Plasma and lungs from all animals were collected and weighed at termination. Lungs were infused with and then immersed in 10% Neutral buffered formalin. Tissues were stored for additional gross and histopathologic analysis.
Animals were administered either mHTI, Imm12, or Imm14. A negative control group was administered mIgG. The antibodies were formulated in PBS and were administered in at dose of 200 μg/mouse, twice weekly, for four weeks. The survival of the animals was then recorded over […].

[7] = molecular target: T4, mouse SPARC (Mus musculus, UniProt P07214); test: ELISA binding to murine SPARC (FIG. 16); details: ELISA (FIG. 16)
T4 sequence (P07214 18-302): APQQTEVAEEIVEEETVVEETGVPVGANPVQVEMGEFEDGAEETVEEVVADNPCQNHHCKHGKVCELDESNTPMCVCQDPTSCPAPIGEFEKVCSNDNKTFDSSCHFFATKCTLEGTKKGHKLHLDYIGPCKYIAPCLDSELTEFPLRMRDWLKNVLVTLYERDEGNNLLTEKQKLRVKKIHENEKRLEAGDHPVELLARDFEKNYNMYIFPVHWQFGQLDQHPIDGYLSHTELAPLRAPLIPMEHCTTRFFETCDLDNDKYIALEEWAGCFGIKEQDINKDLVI

[8] = molecular target: T1, SPARC; test: ELISA binding to human SPARC (FIG. 16); details: ELISA (FIG. 16)
[9] = test system: recombinant human SPARC protein; test: Tube Formation Assay (AngioKit) with SPARC and SPARC binding antibodies; assay type: cell-based; details: 300 μg/mL antibody with 10 μg/mL recombinant human SPARC
Experimental: This assay was performed using the TCS Cellworks human AngioKit model kit (TCS-ZHA-1000, TCS Cell Works, Buckingham, UK) as described in Example 10 above. The media contained 10 μg/mL recombinant human SPARC protein. The media also contained 300 μg/mL of one of the above prepared mouse SPARC binding monoclonal antibodies (Imm12, Imm14, mHTI), or a control (mouse IgG).
To examine the effect of SPARC on tubule formation, and interference with that function by SPARC binding monoclonal antibodies, the number of tubules formed and their length was evaluated by light microscopy.

[10] = antibody supernatants prior to purification, dilutions 1:1, 1:10, 1:100 (FIG. 7)
[11] = purified antibodies at 0.04, 0.2, 1 and 5 μg/mL (FIG. 8)

Molecule: O=c1[nH]cc(F)c(=O)[nH]1 [Imm 5-FU, 5-fluorouracil]
- Tumor growth inhibition (TGI) [1]: 89.8%
- body weight / tolerability ([1]; mouse, in vivo): without decrease in body weight

Molecule: bevacizumab: anti-VEGF antibody, Avastin
- Tumor growth inhibition (TGI) [1]: 75%

B1: Imm13: fully human anti-human SPARC antibody created from Fab6, IgG1 (κ) (antibody, V domains shown)
VH: QVQLVQSGGGLVQPGGSLRLSCAASGFTVSSNYMSWVRQAPGKGLEWVSVIYSGGSTYYADSVKGRFTISRDNSKNTLYLQMNSLRAEDTAVYYCARGIAAAGLDYWGQGTLVTVSP
VL: ELVLTQPPSVSAAPGQKVTISCSGSSSNIGNNYVYWYQQLPGTAPKLLIYRNNQRPSGVPDRFSGSKSGTSASLAISGLRSEDEADYYCAAWDDSLSGWVFGGGTKLTVL
- affinity for SPARC relative to mouse derived Imm11 and Imm12 [2]: higher affinity

B2: Imm2: mouse-derived anti-human SPARC antibody from hybridoma, IgG1, 2b (κ) (antibody, V domains shown)
VH: TVTGYSITSDHAWSWIRQFPGNKLEWMGYISYSGSTSYNPSLKSRVSVTRDTSKNHFFLQLNSVTTEDTATYYCARAAFIGGWFAYWGQGTT
VL: GEKVTITCSASSSVSYMHWFQQKPGTSPKLWIYSTPNLASGVPARFSGSGSGTSYSLTISRMEAEDAATYYCQQRSSYPLTFGGGTKLELKQ
- localization at the tumor site [3]: localizes well

B3: Imm4: mouse-derived anti-human SPARC antibody from hybridoma, IgG1 (κ) (antibody, V domains shown)
VH: AASGFAFSSYDMSWVRQTPEKRLEWVAYITSGGGSTYYPDTVKGRFTISRDNAKNTLYLQMSSLKSEDTAMYYCAGSRSWFAYWGQGTTVTV
VL: GEGVSFSCRASQSIGTGIHWYQRRTNGSPRLLIKYASESISGIPSRFSGSGSGTDFTLTINSVESEDIADYYCQQSYSWPLTFGAGTKLELK
- binding to Bio1-SPARC compared with HTI-SPARC (ELISA) [4]: bind Bio1-SPARC significantly better than HTI-SPARC
- Bio1-SPARC binding (ELISA) [4, 10]: highest Bio1-SPARC binding
- Bio1-SPARC binding (ELISA) [4, 11]: highest Bio1-SPARC binding

B4: Imm12: mouse-derived anti-human SPARC antibody from hybridoma, IgG1 (κ), SEQ ID NOs 7 and 14 (antibody, V domains shown)
VH: KASGYTFTKYGMNWVKQAPGKGLQWMGWINTNTGEPTYAEEFKGRFAFSLETSASTAYLQINNLENADSATYFCTRGSSYFDYWGQGTTVTV
VL: GQRATISYRASKSVSTSGYSYMHWNQQKPGQPPRLLIYLVSNLESGVPARFSGSGSGTDFTLNIHPVEEEDAATYYCQHIRELTRSVEAPSS
- binding to Bio1-SPARC compared with HTI-SPARC (ELISA) [4]: bind both varieties of human SPARC equally well
- Bio1-SPARC binding (ELISA) [4, 10]: highest Bio1-SPARC binding; also recorded: highest binding overall
- Bio1-SPARC binding (ELISA) [4, 11]: highest Bio1-SPARC binding
- binding to denatured SPARC [5]: binding
- inhibition of lung LL/2 metastasis [6]: did not inhibit lung LL/2 metastasis
- binding to mouse SPARC [7]: not mouse SPARC
- binding to human SPARC [8]: specifically bind to human SPARC
- effect on SPARC-induced tubule formation [9]: only very slight formation of very short tubules
- localization at the tumor site [3]: do not localize at the tumor site

B5: Imm6: mouse-derived anti-human SPARC antibody from hybridoma, IgG1 (κ) (antibody, V domains shown)
VH: TVTGYSITSDSAWNWIRQFPGNKLEWMGHISYSGSTSYNPSLKSRISITRDTSKDQFFLQLNSVTTEDTATYYCARGSYYGNFGFTYWGQGT
VL: GETVTITCQASENIASDLAWYQKEGRSPQLLVYEARNLADGVPSRFSGSGSDTLYSLNIHSLQSEDVARYYCQHYYGTPWTFGGGTKPRAN
- Bio1-SPARC binding (ELISA) [4, 10]: highest Bio1-SPARC binding

B6: Imm10: mouse-derived anti-human SPARC antibody from hybridoma, IgG1 (κ) (antibody, V domains shown)
VH: AASGFTFSYYGMSWVRQTPDKRLEWVATISSGGSYTYYPDSVKGRFTISRDNSENTLYLQMNSLKSEDTAMYFCARRGSSGDYYGMDYWGQG
VL: GEKVTMSCKSSQSLLYSNSQKNYLAWYQQKPGQSPKLLIYWASTRESGVPPRFTGSGSGTDFSLTISSVKAEDLAVYYCQQYYSFPRTFGGG
- Bio1-SPARC binding (ELISA) [4, 10]: highest Bio1-SPARC binding
